Data set [1] addresses T1, α2NC2 (NC2 domain of the human collagen IX α2 chain) (human).
T1 construct: Expressed as the Trx_α2NC2 fusion and cleaved with thrombin; also called U2
T1 peptide: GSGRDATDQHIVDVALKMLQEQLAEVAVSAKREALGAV
Put plainly: CD at 222 nm, thermal transition at 18.7 µM complex, pH 4.5, bimolecular two-state fit. The method, then: (§1) FIG. 9. Thermal transitions of the NC2-containing complexes. A, Thermal transition curves of α123NC2-(GPP)_5CC were recorded in 50 mM sodium acetate buffer, pH 4.5, supplemented with 0M (green circles), 1M (red circles for heating and blue circles for cooling), and 2M (cyan circles) guanidine hydrochloride using 7 μM complex concentrations and a 1-mm path length quartz cuvette. The change in collagen triple helical and α-helical contents was monitored at 230 nm with a scan rate of 1° C./min. […] The first transition followed by the increase of the CD signal is associated with the unfolding of the collagen triple helix, whereas the second transition is associated with the unfolding of the NC2 domain. […] The change in α-helical content was monitored at 222 nm with a scan rate of 0.25° C./min. The curves were globally fitted (white lines) as described herein.
(§2) Since the α1NC2 chain is disulfide-linked to the α3NC2 chain, only two products dissociates from the complex upon denaturation and the folding reaction should be considered as bimolecular. According to this and other assumptions (see 1.1.-1.10., above), two transitions using a 10-fold difference in concentrations of the complex were separately globally fitted and yielded similar values of the standard enthalpy, $\Delta H^0$, and the standard entropy, $\Delta S^0$.

In data set [2] the target is T1, α2NC2 (NC2 domain of the human collagen …). Description: CD at 222 nm, thermal transition at 1.87 µM complex, pH 4.5, bimolecular two-state fit. The method, then:
as §1, §2

The target of a further data set is T2, α3NC2-(GPP)5CC (human, not fully specified; chain 1: Cys60 and Cys61 (collagen III cystine knot) form interchain disulfides in the oxidized trimer. Cys15 is also counted as oxidized in the calculated trimer mass.).
T2 construct: Mixed and reoxidized as a His-tagged thioredoxin fusion, then characterized after thrombin cleavage as part of α123NC2-(GPP)5CC; also called Trx_α3NC2-(GPP)5CC (before thrombin cleavage)
T2 peptide: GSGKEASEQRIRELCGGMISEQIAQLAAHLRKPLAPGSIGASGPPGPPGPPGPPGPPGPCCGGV
Description: oxidative folding of the three Trx fusions, non-reducing SDS-PAGE. The protocol: Initially the purified constructs either with or without collagenous part were folded under the same oxidative conditions. The three chains of approximately equal concentrations were mixed, diluted with water and the buffer was adjusted to 100 mM Tris/HCl buffer, pH 8.6, containing 15 mM Na-phosphate, 150 mM NaCl, 150 mM imidazol, 10 mM reduced glutathione, 1 mM oxidized glutathione at 25° C. Final concentration of each chain was ~10 µM. The solution was sequentially incubated at 37° C. for 24 hours, at 30° C. for 24 hours, 25° C. for 24 hours and the pH value was periodically checked and adjusted to be not lower than 8.3. Finally, the solution was extensively dialyzed against 50 mM Tris/HCl buffer, pH 8, containing 150 mM NaCl, at room temperature to remove imidazol and reducing agents.
1.11.3. Results: Initial Purification of Fusion Proteins Trx_α1NC2-(GPP)_5C, Trx_α2NC2-(GPP)_5CC and Trx_α3NC2-(GPP)5CC and their Reoxidation Soluble fractions of cell lysates were separately purified over the Ni-NTA resin and analyzed on a gel (FIG. 2A, lanes 1-3). In addition to bands corresponding to monomeric species around 20 kDa, dimeric, trimeric and ladders of higher multimers were observed, indicating formation of multiple intermolecular disulfide bonds, presumably due to misfolding. […]

Positions of bridges follow the written chain, without caps; N, C: chain ends. Chains are numbered I, II in the order given. No end group written: not given here.

B1: disulfide-bonded α1NC2-α3NC2 (NC2 domains of the human collagen IX α1 and α3 chains, linked by a disulfide) (other)
chain 1: GSPTDQHIKQVCMRVIQEHFAEMAASLKRPDS
chain 2: GSASEQRIRELCGGMISEQIAQLAAHLRKPLAP
modifications: disulfide I:12-II:12 (inferred)
notes: Part of the α123NC2 complex after removal of His-tagged thioredoxin; also called α1-α3; U13
B1: in data set [1], the “Tm (midpoint of the coupled unfolding and dissociation)” value is 65.8 ° C; the “ΔH^0 (standard enthalpy of U13+U2 to N)” value was -203 kJ/(mol complex); the “ΔS^0 (standard entropy of U13+U2 to N)” value is -502 J/(mol complex K). For the same molecule, in data set [2], the “Tm (midpoint of the coupled unfolding and dissociation)” value turned out to be 51.2 ° C; the “ΔH^0 (standard enthalpy of U13+U2 to N)” value was -200 kJ/(mol complex); the “ΔS^0 (standard entropy of U13+U2 to N)” value was -500 J/(mol complex K).

B2: α1NC2-(GPP)5CC (peptide)
peptide: GSGYPGRAPTDQHIKQVCMRVIQEHFAEMAASLKRPDSGATGASGPPGPPGPPGPPGPPGPCCGGV
modifications: not fully specified; also: interchain disulfides via Cys62 and Cys63 in the trimer with other chains
notes: Mixed and reoxidized as a His-tagged thioredoxin fusion, then characterized after thrombin cleavage as part of α123NC2-(GPP)5CC; also called Trx_α1NC2-(GPP)5CC (before thrombin cleavage)
As for B2, in the data set with α3NC2-(GPP)5CC, the binding result is recorded as “binds”.

The values above are taken from patent US9932390 (SHRINERS HOSPITAL FOR CHILDREN, dated 2018).
